The text below walks through data of article PMC10713552 (Communications Biology, 2023).

Where two headings read alike, the source gives them in different places.

Assay in all cases: BLI
(In general: In BLI a coated tip is dipped into the sample, and binding shifts an interference pattern.)

The target of assay [1] is T1, Omicron BA.1 spike protein ectodomain (BLI) (SARS-CoV-2 Omicron BA.1, strain).
The target of assay [2] is T2, D614G-Hexapro (WT) spike ectodomain (SARS-CoV-2 Wuhan-Hu-1 D614G, D614G).
In assay [3] the target is Omicron BA.5 spike protein ectodomain (BLI) (SARS-CoV-2 Omicron BA.5 (BA.4/5 spike), strain). The conditions noted are these: both partners purified.
In assay [4] the target is T1, Omicron BA.1 spike protein ectodomain …. The note with it: both partners purified.
Assay [5] deals with Omicron BA.2 spike protein ectodomain (BLI) (SARS-CoV-2, Omicron BA.2, strain). The conditions noted are these: both partners purified.
For assay [6], the target named is Omicron BA.2.12 spike protein ectodomain (BLI) (SARS-CoV-2 Omicron BA.2.12.1, strain). The conditions noted are these: both partners purified.
The target in assay [7] is T2, D614G-Hexapro (WT) spike ectodomain. The note with it: both partners purified.
In assay [8] the target is SARS-CoV-2 B.1.1.529.1/BA.1 S-HexaPro (SARS-CoV-2, Omicron BA.1, Ser371Leu | Ser373Pro | Ser375Phe | Q493R). The note with it: both partners purified.
In assay [9] the target is SARS-CoV-2 Omicron BA.2.12.1 spike protein ectodomain (SARS-CoV-2 Omicron BA.2.12.1, S373P). The note with it: both partners purified.

B1: N3-1_Y (antibody, V domains shown)
VH: QVQLQQWGPGLVNPSETLSLTCSVSGGSFATENYYWSWIRQHPGEGLEWIGNIYFSGNTYYNPSLNNRFTISFDTSKNHLSLKLPSVTAADTAVYYCARGTIYFDYSGYRRVDPFHIWGQGTMVIVSS
VL: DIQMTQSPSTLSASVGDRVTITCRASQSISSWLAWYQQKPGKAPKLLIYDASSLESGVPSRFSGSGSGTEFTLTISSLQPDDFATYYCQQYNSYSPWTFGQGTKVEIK
notes: IgG1
As to B1, the Kd (commonly the constant that tells how readily two partners part at equilibrium) in assay [1] stood at 3550 nM; in assay [2] it was 233 nM; in assay [3], 337 nM; in assay [4] it was 709 nM; in [5], 225 nM; in [6], 142 nM. In assay [7], this molecule registered a Kd of 5.45 nM. For the same molecule, the koff (usually the first-order rate constant of dissociation) in assay [1] was 0.00213 s⁻¹; in assay [2], 0.000325 s⁻¹; in assay [3], 0.0072 s⁻¹; in assay [4], 0.00791 s⁻¹; in assay [5], 0.00447 s⁻¹; in [6] it was 0.00385 s⁻¹. In addition, the koff in assay [7] was found to be 0.000748 s⁻¹. For the same molecule, the kon – broadly, the second-order rate constant of association – is 600 M⁻¹ s⁻¹ in assay [1]; 1400 M⁻¹ s⁻¹ in assay [2]; 21300 M⁻¹ s⁻¹ in assay [3]; 11200 M⁻¹ s⁻¹ in assay [4]; 19900 M⁻¹ s⁻¹ in assay [5]; 27100 M⁻¹ s⁻¹ in assay [6]. In assay [7], this molecule displayed a kon of 137000 M⁻¹ s⁻¹.

B2: N3-1_L (antibody, V domains shown)
VH: QVQLQQWGPGLVNPSETLSLTCSVSGGSFATENYYWSWIRQHPGEGLEWIGNIYFSGNTYYNPSLNNRFTISFDTSKNHLSLKLPSVTAADTAVYYCARGTIYFDLSGYRRVDPFHIWGQGTMVIVSS
VL: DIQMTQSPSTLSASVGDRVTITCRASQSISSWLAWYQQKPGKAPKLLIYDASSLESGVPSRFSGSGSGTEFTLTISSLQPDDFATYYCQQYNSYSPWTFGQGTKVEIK
notes: IgG1
Take B2: the Kd stood at 15200 nM in assay [1]; 54.1 nM in assay [2]; 414 nM in assay [3]; 660 nM in [4]; 273 nM in assay [5]; 173 nM in [6]. This molecule also came in with a Kd in assay [7] of 6 nM. Further, the koff was found to be 0.00357 s⁻¹ in assay [1]; 0.00037 s⁻¹ in assay [2]; 0.00689 s⁻¹ in assay [3]; 0.00429 s⁻¹ in assay [4]; 0.00415 s⁻¹ in assay [5]; 0.00339 s⁻¹ in assay [6]. The koff in assay [7] amounted to 0.00047 s⁻¹. Moreover, the kon in assay [1] came out at 234 M⁻¹ s⁻¹; in assay [2], 6840 M⁻¹ s⁻¹; in assay [3], 16600 M⁻¹ s⁻¹; in assay [4], 6490 M⁻¹ s⁻¹; in assay [5], 15200 M⁻¹ s⁻¹; in [6], 19500 M⁻¹ s⁻¹. This molecule also returned a kon in [7] of 78300 M⁻¹ s⁻¹.

B3: N3-1_I (antibody, V domains shown)
VH: QVQLQQWGPGLVNPSETLSLTCSVSGGSFATENYYWSWIRQHPGEGLEWIGNIYFSGNTYYNPSLNNRFTISFDTSKNHLSLKLPSVTAADTAVYYCARGTIYFDISGYRRVDPFHIWGQGTMVIVSS
VL: not shown
notes: IgG1
Take B3: the Kd in assay [1] amounted to 20.4 nM; in [2], 1220 nM; in [3] it was 145 nM; in [4], 331 nM; in assay [5] it was 121 nM; in assay [6], 76.9 nM. Also, the koff in assay [1] turned out to be 0.00136 s⁻¹; in assay [2] it was 0.000796 s⁻¹; in [3], 0.00168 s⁻¹; in [4], 0.00193 s⁻¹; in assay [5], 0.00146 s⁻¹; in [6], 0.00112 s⁻¹. Moreover, the kon in [1] was determined as 66700 M⁻¹ s⁻¹; in assay [2] it was 651 M⁻¹ s⁻¹; in [3], 11600 M⁻¹ s⁻¹; in [4] it was 5820 M⁻¹ s⁻¹; in assay [5], 12100 M⁻¹ s⁻¹; in [6] it was 14600 M⁻¹ s⁻¹. In addition, the kon in assay [7] was determined as 76000 M⁻¹ s⁻¹.

B4: N3-1_I (antibody, V domains shown)
VH: QVQLQQWGPGLVNPSETLSLTCSVSGGSFATENYYWSWIRQHPGEGLEWIGNIYFSGNTYYNPSLNNRFTISFDTSKNHLSLKLPSVTAADTAVYYCARGTIYFDISGYRRVDPFHIWGQGTMVIVSS
VL: not shown
notes: IgG1; copies: 2 + 2
On to B4, for which the “fold improvement in Kd against wild-type N3-1” value worked out at 4 fold in assay [8] and 20 fold in [9].
